Measured values from patent US10961303 (UNIVERSITEIT TWENTE, dated 2021).

T1: BMP-7 (R&D system cat. #354-BP/CF) (UniProt P18075 293-431)
T1 construct: Bought protein
T1 sequence (looked up): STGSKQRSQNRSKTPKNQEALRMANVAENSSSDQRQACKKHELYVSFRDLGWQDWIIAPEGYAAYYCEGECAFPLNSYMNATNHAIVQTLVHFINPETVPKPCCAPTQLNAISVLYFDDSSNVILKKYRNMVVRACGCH

T2: BMP-6 (R&D systems cat. #507-BP/CF) (human, UniProt P22004 382-513, limits assumed)
T2 construct: Bought protein; also called recombinant human BMP-6
T2 sequence (looked up): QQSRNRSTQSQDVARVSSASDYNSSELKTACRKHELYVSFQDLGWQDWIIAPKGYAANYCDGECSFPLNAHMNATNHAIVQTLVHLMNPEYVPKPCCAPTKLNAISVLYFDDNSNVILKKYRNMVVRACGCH


Columns and labels:
[1] = biological target: T1, BMP-7 (R&D system cat. #354-BP/CF); experiment: binding test to cognate antigen, method not described
[2] = biological target: T1, BMP-7 (R&D system cat. #354-BP/CF); experiment: solid phase ELISA, wells coated with 200 ng BMP7
Description: (§1) The indicated amounts of VHHs were incubated with wells coated with ~200 ng BMP6, 200 ng BMP7 or no BMPs (PBS). After several washes, bound VHHs were detected with a rabbit anti-VHH serum and a Donkey anti-rabbit antibody coupled to a peroxidase. The amount of converted OPD (Absorbance at 490 nm; A 490 nm) is proportional to the amount of bound VHHs.
(§2) MaxiSorb plate wells were coated overnight at 4° C., with the antigens in PBS. After blocking of the wells with 4% marvel in PBS, they were incubated with VHH or VHH-fused to M13 phages in the presence of 2% Marvel. The wells were washed with PBS-tween, and bound phages were detected by incubation with a mouse Monoclonal antibody against M13 phage coupled to HRP. Bound VHH were detected by incubation with a rabbit anti-VHH polyclonal serum and a goat anti-rabbit coupled to HRP. The amount of HRP was developed by the addition of OPD. The reactions were stopped by the addition of H_2SO_4 and measured at 490 nm.

[3] = biological target: T2, BMP-6 (R&D systems cat. #507-BP/CF); experiment: solid phase ELISA, wells coated with ~200 ng BMP6
Description: as §1, §2

[4] = biological target: T2, BMP-6 (R&D systems cat. #507-BP/CF); experiment: SPR, VHH coupled to CM5 chip, BMP injected
[5] = biological target: T1, BMP-7 (R&D system cat. #354-BP/CF); experiment: SPR, VHH coupled to CM5 chip, BMP injected
[6] = biological target: T2, BMP-6 (R&D systems cat. #507-BP/CF); experiment: ELISA, 100 ng BMP6 coated, serial dilutions, read at 490 nm
Excerpt: FIG. 7A-7B show the binding properties of the fusion proteins according to the invention which bind to a growth factor or growth factor inhibitor and to a biomaterial. Fusion proteins according to the invention are composed of the VHH according to the invention binding to a growth factor (indicated in the figure as "VHH-6-F2") and a VHH binding to a biomaterial (indicated in the figure as "MA"). […] The fusion proteins (indicated in the figure as "F") were constructed by genetic fusion of a VHH binding to BMP6 and a VHH binding to hydroxyapatite. To achieve binding to the growth factor BMP6 (FIG. 7A), 100 ng of BMP6 was coated into wells of a maxisorb plate. Serial dilutions of the VHH which binds to BMP6 (VHH-6-F2) and fusion proteins according to the invention (F) were added to the wells. Bound VHHs (VHH-6-F2) and fusion proteins (F) were detected with labelled polyclonal antibodies.

[7] = biological target: T2, BMP-6 (R&D systems cat. #507-BP/CF); experiment: solid phase ELISA, wells coated with 200 ng BMP
Description: as §1, §2

Binder	binding result [2]	binding result [3]	other results
Glyco-VHH (glycosylated VHH-7-G7 with an N-glycosylation site introduced in loop5, made in yeast) (VHH, N-linked glycosyl group at the glycosylation site introduced in loop5 (position not given), Expressed in S. cerevisiae; also called mutated VHH) VHH: EVQLVESGGGLVQAGGSLRLSCAASGFTFDDYIIGWFRQAPGKEREGISCISSSDGSTYYADSVTGRFTISSDNANNTVYLQMNSLKPEDTAVYYCAAHAKWPYGTYSFRRCRRASFDSWGQGTQVTVSS	–	–	binding result [1]: binds
VHH-6-C2 (VHH, Llama VHH selected against BMP6, cross-reactive with BMP7; not shown: C-terminal Myc and His tags) VHH: EVQLVESGGGLVQVGGSLRLSCAASGRTSSMYSMGWFRQAPGKEREFVAAIGWRFGEKYYTNSVKGRFTISRDGAENTNTVYLQMNSLKPDDTAVYYCAADPDDASQYYSDWMKGYGMDYWGKGTLVTVSS	binds	binds	–
VHH-6-H1 (VHH, Llama VHH selected against BMP6; In SPR coupled to a CM5 chip by NHS chemistry; also called monohead VHH-6-H1; not shown: C-terminal Myc and His tags) VHH: EVQLVESGGGLVQAGGSLRLSCAASGSIFSIVSMGWYRQVPGKQRELVAAITSAGSTNYGDSAKGRFTISRDNAKNTVYLQMNSLKPEDTAVYYCNSYGLGYPGDYGIDYWGKGTLVTVSS	–	–	binding result [4]: binds; binding result [5]: binds
VHH-6-D6 (VHH, Llama VHH selected against BMP6, made in E. coli periplasm; not shown: C-terminal Myc and His tags) VHH: EVQLVESGGGLVQAGGSLRLSCAASGRTFSSYGMGWFRQAPGKERDFVAAVSKSGGSTYYTASVKGRFTVSRDNAKNTVYLQMNSLKPEDTAVYYCAAGRWESGSRPGSTWYGERTYDYWGQGTQVTVSS	–	binds	–
VHH-6-F2 (VHH, Llama VHH selected against BMP6; not shown: C-terminal Myc and His tags) VHH: EVQLVESGGGFVQAGGSLRLSCAASGSIFSINAMGWYRQAPGKQRELVAAITSGGSTNYADSVKGRFTISRDNAKNTLYLQMNSLKPEDTAVYYCSAVTILLTSGGWGSGNDYWGQGTQVTVSS	–	–	binding result [6]: binds
VHH-7-B8 (VHH, Llama VHH selected against BMP7; not shown: C-terminal Myc and His tags) VHH: EVQLVESGGGLVRAGGSLRLSCAASGRTFSGYVAGWFRQAPGKEREFVAAISWSGITYYGDSVKGRFTIARDNSKNGVYLQMNSLKPEDTAVYYCGAGKGYYKDYRGYDYWGQGTQVTVSS	binds	–	–

Continued, in another order:

binding result [2]	binding result [3]	Binder	other results
–	binds	VHH-6-C1 (VHH, Llama VHH selected against BMP6; not shown: C-terminal Myc and His tags) VHH: EVQLVESGGGLVQAGGSLRLSCAASGRTFSSYGMGWFRQAPGKERDFVAAVSRSGGNTYYTASVKGRFTISRDNAKNTMYLQMNSLKPEDTAVYYCAAGRWESGSRLGSTWYGERTYDYWGQGTQVTVSS	–
binds	–	VHH-7-F11 (VHH, Llama VHH selected against BMP7; In SPR coupled to a CM5 chip by NHS chemistry; not shown: C-terminal Myc and His tags) VHH: EVQLVESGGGLVQAGGSLRLSCAASGRTFSGYVAGWFRQAPGKEREFVAASSWSGITYYGDSVKGRFTISRDNAKNTVYLQMNSLKPEDTAVYYCGAGKGYYKDYRGYDYWGQGTQVTVSS	binding result [7]: no binding
